According to patent US20130072665A1 (Amgen, published 2013):
Residue numbers refer to the chain shown, from its start. Read-outs that look alike come from different tables or passages of the source.

Experiments:
[1] = molecular target: T1, PCSK9 ProCat (31-449 of SEQ ID NO: 3) (human, UniProt Q8NBP7 27-449); test: domain binding ELISA (coated antibody captures the PCSK9 form; OD650)
T1 construct: From PCSK9 449TEV after rTEV cleavage: GAMG-PCSK9 (31-449)-ENLYFQ; Written as one chain; autocatalysis between 152 and 153 splits pro-domain and catalytic domain; also called procat PCSK9; PCSK9 31-449

[2] = molecular target: T2, PCSK9 V domain (450-692 of SEQ ID NO: 3) (human, UniProt Q8NBP7 450-692); test: as above
T2 construct: also called v-domain PCSK9
T2 chain: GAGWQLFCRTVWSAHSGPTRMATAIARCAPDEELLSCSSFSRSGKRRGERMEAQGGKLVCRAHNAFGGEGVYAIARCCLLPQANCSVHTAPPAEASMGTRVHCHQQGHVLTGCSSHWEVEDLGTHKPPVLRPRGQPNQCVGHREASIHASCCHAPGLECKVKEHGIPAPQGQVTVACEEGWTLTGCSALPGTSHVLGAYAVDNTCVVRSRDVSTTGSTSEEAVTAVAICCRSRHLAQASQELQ

[3] = molecular target: T3, human PCSK9 (proprotein convertase subtilisin kexin type 9) (human, UniProt Q8NBP7 31-692); test: BIAcore solution equilibrium, pH 6.0
T3 construct: Used untagged, biotinylated, V5/His- or His-tagged depending on the assay; also called hPCSK9; huPCSK9

[4] = molecular target: T3, human PCSK9 (proprotein convertase …); test: BIAcore solution equilibrium, pH 5.5
[5] = molecular target: T3, human PCSK9 (proprotein convertase …); test: BIAcore kinetic assay 1, His-tagged huPCSK9 captured, pH 7.4
[6] = molecular target: T3, human PCSK9 (proprotein convertase …); test: BIAcore kinetic assay 1, His-tagged huPCSK9 captured, pH 5.5
[7] = molecular target: T3, human PCSK9 (proprotein convertase …); test: BIAcore solution equilibrium, pH 7.4
[8] = molecular target: T3, human PCSK9 (proprotein convertase …); test: BIAcore kinetic assay 1, His-tagged huPCSK9 captured, pH 6.0
[9] = molecular target: T1, PCSK9 ProCat (31-449 of SEQ ID NO: 3); test: domain binding ELISA (coated antibody captures the PCSK9 form; OD650); remark: listed apart in the source
[10] = molecular target: T2, PCSK9 V domain (450-692 of SEQ ID NO: 3); test: as above
[11] = molecular target: T3, human PCSK9 (proprotein convertase …); test: BIAcore solution equilibrium, pH 7.4; pH 7.4
[12] = molecular target: T2, PCSK9 V domain (450-692 of SEQ ID NO: 3); test: native PAGE gel shift
[13] = molecular target: T3, human PCSK9 (proprotein convertase …); test: BIAcore kinetic assay 2
[14] = molecular target: T3, human PCSK9 (proprotein convertase …); test: BIAcore kinetic assay 2, antibody captured, pH 6.0
[15] = molecular target: T3, human PCSK9 (proprotein convertase …); test: BIAcore kinetic assay 2, antibody captured, pH 7.4
[16] = molecular target: T3, human PCSK9 (proprotein convertase …); test: BIAcore kinetic assay 2, antibody captured, pH 5.5
[17] = molecular target: T2, PCSK9 V domain (450-692 of SEQ ID NO: 3); test: domain binding ELISA
31H4, anti-PCSK9 huIgG4 = molecular target: T4, 31H4, anti-PCSK9 huIgG4; test: KinExA solution equilibrium, % free 31H4.1 (100 pM) against [mPCSK9]
T4 construct: from hybridoma

16F12, anti-PCSK9 huIgG4 = molecular target: T5, 16F12, anti-PCSK9 huIgG4; test: KinExA solution equilibrium, % free 16F12 (100 pM) against [mPCSK9]
T5 construct: from hybridoma; also called 16F12 IgG4; 16F12.1
T5 sequence (VH, as listed by the source, chain 1 of 2): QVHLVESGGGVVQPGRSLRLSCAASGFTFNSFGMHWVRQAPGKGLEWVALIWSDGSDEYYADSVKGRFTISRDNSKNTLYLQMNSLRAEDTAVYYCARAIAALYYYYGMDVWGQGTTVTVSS
T5 sequence (V domain, as listed by the source, chain 2 of 2): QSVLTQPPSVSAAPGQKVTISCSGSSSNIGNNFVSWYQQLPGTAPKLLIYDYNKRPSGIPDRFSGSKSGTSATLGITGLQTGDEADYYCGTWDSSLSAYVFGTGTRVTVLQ

B1: 30A4 (antibody, V domains shown)
VH: QVQLVESGGGVVQPGRSLRLSCAASGFTFSSYGMHWVRQAPGKGLEWVAVIWYDGSDKYYADSVKGRFTISRDNSKNTLYLQMNSLRAEDTAVYYCARETGPLKLYYYGMDVWGQGTTVTVSS
VL: DIVMTQSPLSLSVTPGEPPSISCRSSQSLLHSNGYNFLNWYLQKPGQSPQLLIYLGSHRASGVPDRFSGSGSGTDFTLEISRVEAEDVGVYYCMQVLQTPFTFGPGTKVDIK
binding result [1]: binds
binding result [2]: no binding

B2: 13H1 (antibody, V domains shown)
VH: QVQLQQSGPGLVKPSQTLSLTCAISGDSVSSNSAAWNWIRQSPSRGLEWLGRTYYRSKWYKNYSVSVKSRITINPDTSKNQFSLQLNSVTPGDTAVYYCARGGPTAAFDYWGQGTLVTVSS
VL: LSALTQPASVSGSPGQSITISCTGTSSDVGNYNLVSWYQQYSGKAPKLMIYEVSKRPSGVSNRFSGSKSGNTASLTISGLQAEDEADYYCCSYAGSSTLVFGGGTKLTVL
binding result [1]: binds
binding result [2]: no binding

B3: 1A12 (antibody, V domains shown)
VH: EVQLVESGGGLVQPGGSLRLSCAASGLTFSNFWMSWVRQAPGKGLEWVANIKQDGSEKYYVDSVKGRFTISRDNAKNSLYLQMNSLRAEDTAVYSCTRESNWGFAFDIWGQGTMVTVSS
VL: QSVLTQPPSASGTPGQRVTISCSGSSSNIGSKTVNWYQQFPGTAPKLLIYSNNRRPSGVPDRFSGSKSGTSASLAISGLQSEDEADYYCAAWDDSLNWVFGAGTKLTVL
notes: also called 1A12.2
Kd [3]: 1 nM
Kd [4]: 1.1 nM
Kd [5]: 0.4 nM
Kd [6]: 1.4 nM
Kd [7]: 0.56 nM
Kd [8]: 1.3 nM
binding result [9]: binds
binding result [10]: no binding

B4: 9C9 (antibody, V domains shown)
VH: B3 VH with A23V, A24V, L27F, N31S, F32Y, S95Y, T97A
VL: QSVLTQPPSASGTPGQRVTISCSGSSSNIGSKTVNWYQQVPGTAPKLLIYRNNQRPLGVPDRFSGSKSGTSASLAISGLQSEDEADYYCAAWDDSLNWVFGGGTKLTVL
Kd [3]: 2.3 nM
Kd [11]: 0.56 nM
Kd [4]: 3.2 nM
Kd [5]: 0.56 nM
Kd [6]: 3.2 nM
Kd [8]: 2.3 nM

B5: 9H6 (antibody, V domains shown)
VH: B3 VH with L27F, N31R, F32Y, Q53H, S95Y, T97A, I108V, Q111H
VL: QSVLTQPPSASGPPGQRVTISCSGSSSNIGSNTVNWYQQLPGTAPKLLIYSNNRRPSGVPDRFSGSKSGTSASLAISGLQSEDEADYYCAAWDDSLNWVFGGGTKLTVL
Kd [3]: 1.3 nM
Kd [4]: 1.4 nM
Kd [7]: 0.7 nM
binding result [1]: binds
binding result [2]: no binding

B6: 21B12 (antibody, V domains shown)
VH: QVQLVQSGAEVKKPGASVKVSCKASGYTLTSYGISWVRQAPGQGLEWMGWVSFYNGNTNYAQKLQGRGTMTTDPSTSTAYMELRSLRSDDTAVYYCARGYGMDVWGQGTTVTVSS
VL: QSALTQPASVSGSPGQSITISCTGTSSDVGGYNSVSWYQQHPGKAPKLMIYEVSNRPSGVSNRFSGSKSGNTASLTISGLQAEDEADYYCNSYTSTSMVFGGGTKLTVL
notes: lambda light chain; also called ABP 21B12; Ab 21B12
binding result [12]: no binding

B7: 26H5 (antibody, V domains shown)
VH: B6 VH with V51I, L64V, G68V, P74T, A79V
VL: B6 VL with A45P, N62I, Y89F, N91S
notes: also called 26H5-7.4
off rate ratio pH 5.5/pH 7.4 [13]: 0.5
off rate ratio pH 6.0/pH 7.4 [13]: 0.8
koff [14]: 0.00047 s⁻¹
koff [15]: 0.00056 s⁻¹
koff [16]: 0.00026 s⁻¹
binding result [9]: binds
binding result [10]: no binding

B8: 23B5 (antibody, V domains shown)
VH: EVQLLESGGGLVQPGGSLRLSCAASGFTFSSYAMNWVRQAPGKGLEWVSTISGSGDNTYYADSVKGRFTISRDNSKNTLYLQMNSLRAEDTAVYYCAKKFVLMVYAMLDYWGQGTLVTVSS
VL: DILMTQSPSSLSASVGDRVTITCRASQSISSYLNWYQQKPGKAPKVLIYAASSLQSGVPSRFSGSGSGTDFTLTINSLQPEDFATYYCQQSYSSPITFGQGTRLEIK
Kd [3]: 0.2 nM
Kd [4]: 0.28 nM
Kd [7]: 0.1 nM
binding result [1]: binds
binding result [2]: no binding

B9: 25G4 (antibody, V domains shown)
VH: B8 VH with D56G
VL: B8 VL with L3Q, S31I, K45Y, V46L, S52A, N76S, S94A
binding result [1]: binds
binding result [2]: no binding

B10: 3C4 (antibody, V domains shown)
VH: QVQLQESGPGLVKPSQTLSLTCTVSGGSISSSDYYWSWIRQHPGKGLEWIGYIYYSGSTYYNPSLKSRITISVDTSKNLFSLKLSSVTAADTAVYYCARGGVTTYYYAMDVWGQGTTVTVSS
VL: DIQMTQSPSSLSASVGDRVTITCRASQRISNYLSWYLQKPGIAPKLLIYAASSLQSGVPSRFSGSGSGTDFTLTISSLQSEDFATYYCQQSYSTPLIFGGGTKVEIK
binding result [17]: binds

B11: 27B2 (antibody, V domains shown)
VH: QVQLQESGPGLVKPSQTLSLTCTVSGGSISSGGYYWSWIRQHPGKGLEWIGYIYNSGSTYYNPSLKSRVTISVDTSKNQFSLKLSSVTAADTAVYYCAREDTAMVPYFDYWGQGTLVTVSS
VL: QSVLTQPPSVSGAPGQRVTISCTGSSSNIGAHYDVHWYQQVPGTAPKLLIYGNTYRPSGVPDRFSGSKSGTSASLAITGLQAEDEADYYCQSYDNSLSGVVFGGGTKLTVL
notes: also called 27B2.3; 27B2.3-7.4
off rate ratio pH 5.5/pH 7.4 [13]: 1.4
off rate ratio pH 6.0/pH 7.4 [13]: 1.3
koff [14]: 0.00051 s⁻¹
koff [15]: 0.00038 s⁻¹
koff [16]: 0.00052 s⁻¹

B12: mouse PCSK9 (enzyme, UniProt Q80W65 35-694, looked up, not shown: small tags and cut ends)
chain: QDEDGDYEELMLALPSQEDGLADEAAHVATATFRRCSKEAWRLPGTYIVVLMEETQRLQIEQTAHRLQTRAARRGYVIKVLHIFYDLFPGFLVKMSSDLLGLALKLPHVEYIEEDSFVFAQSIPWNLERIIPAWHQTEEDRSPDGSSQVEVYLLDTSIQGAHREIEGRVTITDFNSVPEEDGTRFHRQASKCDSHGTHLAGVVSGRDAGVAKGTSLHSLRVLNCQGKGTVSGTLIGLEFIRKSQLIQPSGPLVVLLPLAGGYSRILNAACRHLARTGVVLVAAAGNFRDDACLYSPASAPEVITVGATNAQDQPVTLGTLGTNFGRCVDLFAPGKDIIGASSDCSTCFMSQSGTSQAAAHVAGIVARMLSREPTLTLAELRQRLIHFSTKDVINMAWFPEDQQVLTPNLVATLPPSTHETGGQLLCRTVWSAHSGPTRTATATARCAPEEELLSCSSFSRSGRRRGDWIEAIGGQQVCKALNAFGGEGVYAVARCCLVPRANCSIHNTPAARAGLETHVHCHQKDHVLTGCSFHWEVEDLSVRRQPALRSRRQPGQCVGHQAASVYASCCHAPGLECKIKEHGISGPSEQVTVACEAGWTLTGCNVLPGASLTLGAYSVDNLCVARVHDTARADRTSGEATVAAAICCRSRPSAKASWVQ
notes: biotinylated, tag not mentioned, in the hybridoma screen; also called mPCSK9-8xHIS; mPCSK9
IC50 (read off the curve) (31H4, anti-PCSK9 huIgG4): ~0.6 nM
IC50 (read off the curve) (16F12, anti-PCSK9 huIgG4): ~0.4 nM
